# Experimental data: patent publication US20140050727A1 (MOCHIDA PHARMACEUTICAL, published 2014)
# T1: Elastase, Human Neutrophil (human, UniProt P08246 30-247, limits assumed)
# T1 sequence (looked up): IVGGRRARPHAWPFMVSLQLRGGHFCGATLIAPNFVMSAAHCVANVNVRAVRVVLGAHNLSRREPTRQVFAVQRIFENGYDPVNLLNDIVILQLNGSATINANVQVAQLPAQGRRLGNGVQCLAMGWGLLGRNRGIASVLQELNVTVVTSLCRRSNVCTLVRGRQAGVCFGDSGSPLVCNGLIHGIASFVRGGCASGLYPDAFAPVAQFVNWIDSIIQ
# T2: human CD14 (human, UniProt P08571 20-375, limits assumed)
# T2 sequence (looked up): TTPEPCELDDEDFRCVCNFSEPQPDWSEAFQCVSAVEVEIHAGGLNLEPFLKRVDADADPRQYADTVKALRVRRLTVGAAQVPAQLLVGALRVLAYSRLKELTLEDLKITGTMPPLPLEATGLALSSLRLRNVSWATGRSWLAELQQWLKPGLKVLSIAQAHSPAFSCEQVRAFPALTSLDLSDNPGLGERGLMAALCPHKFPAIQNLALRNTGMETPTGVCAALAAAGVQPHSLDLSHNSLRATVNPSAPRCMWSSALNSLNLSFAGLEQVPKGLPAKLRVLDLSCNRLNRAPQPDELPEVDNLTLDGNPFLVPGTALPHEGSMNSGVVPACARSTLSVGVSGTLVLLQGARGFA
# Experiments:
# Assay in all cases: cell-based or functional assay
# [1] = biological target: T1, Elastase, Human Neutrophil
# [2] = biological target: T2, human CD14
# [3] = biological target: Human Factor Xa (human, UniProt P00742 41-488, limits assumed)
# Human Factor Xa, sequence (P00742 41-488 limits assumed): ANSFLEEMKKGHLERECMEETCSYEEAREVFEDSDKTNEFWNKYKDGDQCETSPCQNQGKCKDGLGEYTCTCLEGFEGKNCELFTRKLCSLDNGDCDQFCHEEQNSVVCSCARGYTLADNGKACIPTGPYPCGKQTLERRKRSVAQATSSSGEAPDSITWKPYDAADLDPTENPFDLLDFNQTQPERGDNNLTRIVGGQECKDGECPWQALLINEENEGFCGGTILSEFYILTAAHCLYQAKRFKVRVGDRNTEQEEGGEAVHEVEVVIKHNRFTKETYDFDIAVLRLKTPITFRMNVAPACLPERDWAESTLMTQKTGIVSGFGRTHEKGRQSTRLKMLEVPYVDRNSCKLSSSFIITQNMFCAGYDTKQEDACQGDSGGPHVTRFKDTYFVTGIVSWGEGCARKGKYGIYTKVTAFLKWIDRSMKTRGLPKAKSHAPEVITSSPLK
50% inhibitory concentration (elastase inhibitory activity) [1] [µg/mL],FXa-inhibiting activity [3],Binder,also measured
–,~20 times that of polypeptide AN68,AVLPQEEEGSGMAACNLPIVQGPCRAFIKLWAFDAVKGKCVLFPYGG (other) [polypeptide R11Q/Q19K/Y46D],–
–,~18 times that of polypeptide AN68,AVLPQEEEGSGMAACNLPIVRGPCRAFIRLWAFDAVKGKCVLFPYGG (other) [polypeptide Q19R/Y46D],–
–,~5 times that of polypeptide AN68,AVLPQEEEGSGMAACNLPIVDGPCRAFIKLWAFDAVKGKCVLFPYGG (other) [polypeptide R11D/Q19K/Y46D],–
–,~13 times that of polypeptide AN68,AVLPQEEEGSGMAACNLPIVEGPCRAFIKLWAFDAVKGKCVLFPYGG (other) [polypeptide R11E/Q19K/Y46E],–
–,~16 times that of polypeptide AN68,AVLPQEEEGSGMAACNLPIVLGPCRAFIKLWAFDAVKGKCVLFPYGG (other) [polypeptide R11L/Q19K/Y46D],–
–,~6 times that of polypeptide AN68,AACNLPIVRGPCRAFIRLWAFDAVKGKCVLFPYGGCQGNGNKFYSEK (other) [polypeptide Q19R],–
–,~3 times that of polypeptide AN68,AACNLPIVEGPCRAFIQLWAFDAVKGKCVLFPYGGCQGNGNKFESEK (other) [polypeptide R11E/Y46E],–
–,~10 times that of polypeptide AN68,AACNLPIVRGPCRAFIRLWAFDAVKGKCVLFPYGGCQGNGNKFESEK (other) [polypeptide Q19R/Y46E],–

# More lines, now with the values behind:
Binder,50% inhibitory concentration (elastase inhibitory activity) [1] [µg/mL],FXa-inhibiting activity [3],also measured
F1024S-SLPI(D2) with modified linker GSGGGGSGGGGSGGGGS (antibody) heavy: QIQLVQSGPELKKPGESVKISCKASGYTFTDYAMNWVKQAPGNGLKWMGWINTQTGKPTYADDFKQRFVFSLETSASTAYLQINNLNIEDTATYFCTRSTFYYSSYIYGWYFDFWGPGTMVTVSSASTKGPSVFPLAPCSRSTSESTAALGCLVKDYFPEPVTVSWNSGALTSGVHTFPAVLQSSGLYSLSSVVTVPSSSLGTKTYTCNVDHKPSNTKVDKRVESKYGPPGPSGPAPEFLGGPSVFLFPPKPKDTLMISRTPEVTCVVVDVSQEDPEVQFNWYVDGVEVHNAKTKPREEQFNSTYRVVSVLTVLHQDWLNGKEYKCKVSNKGLPSSIEKTISKAKGQPREPQVYTLPPSQEEMTKNQVSLTCLVKGFYPSDIAVEWESNGQPENNYKTTPPVLDSDGSFFLYSRLTVDKSRWQEGNVFSCSVMHEALHNHYTQKSLSLSLGKGSGGGGSGGGGSGGGGSRRKPGKCPVTYGQCLMLNPPNFCEMDGQCKRDLKCCMGMCGKSCVSPVKA light: DIVMTQSPTSISISVGERVTMNCKASQNVGSNVDWYQQKTGQSPKLLIYKASNRYTGVPDRFTGSGSGTDFTFTISNMQAVDLAVYYCMQSNTNPPWTFGGGTKLELKRTVAAPSVFIFPPSDEQLKSGTASVVCLLNNFYPREAKVQWKVDNALQSGNSQESVTEQDSKDSTYSLSSTLTLSKADYEKHKVYACEVTHQGLSSPVTKSFNRGEC,11.6,–,–
F1024S-D2(3) (antibody) heavy: QIQLVQSGPELKKPGESVKISCKASGYTFTDYAMNWVKQAPGNGLKWMGWINTQTGKPTYADDFKQRFVFSLETSASTAYLQINNLNIEDTATYFCTRSTFYYSSYIYGWYFDFWGPGTMVTVSSASTKGPSVFPLAPCSRSTSESTAALGCLVKDYFPEPVTVSWNSGALTSGVHTFPAVLQSSGLYSLSSVVTVPSSSLGTKTYTCNVDHKPSNTKVDKRVESKYGPPGPSGPAPEFLGGPSVFLFPPKPKDTLMISRTPEVTCVVVDVSQEDPEVQFNWYVDGVEVHNAKTKPREEQFNSTYRVVSVLTVLHQDWLNGKEYKCKVSNKGLPSSIEKTISKAKGQPREPQVYTLPPSQEEMTKNQVSLTCLVKGFYPSDIAVEWESNGQPENNYKTTPPVLDSDGSFFLYSRLTVDKSRWQEGNVFSCSVMHEALHNHYTQKSLSLSLGKGSTVAACNLPIVSGPCRAFIKLWAFDAVKGKCVLFPYGGCQGNGNKFDSEKECREYCGVPGDGDEELLRFSN light: DIVMTQSPTSISISVGERVTMNCKASQNVGSNVDWYQQKTGQSPKLLIYKASNRYTGVPDRFTGSGSGTDFTFTISNMQAVDLAVYYCMQSNTNPPWTFGGGTKLELKRTVAAPSVFIFPPSDEQLKSGTASVVCLLNNFYPREAKVQWKVDNALQSGNSQESVTEQDSKDSTYSLSSTLTLSKADYEKHKVYACEVTHQGLSSPVTKSFNRGEC,8.9,–,IC50 for inhibition of LPS-induced E-Selectin expression in HUVEC [2]: 0.43 µg/mL; IC50 for inhibition of LPS-induced IL-6 production in HUVEC [2]: 0.38 µg/mL; IC50 for inhibition of LPS-induced TNF-α production in human peripheral blood mononuclear cells [2]: 0.58 µg/mL; IC50 for inhibition of LPS-induced procoagulant activity (PCA) in human peripheral blood mononuclear cells [2]: 20.9 µg/mL
F1024S-SLPI(D2) (antibody) heavy: QIQLVQSGPELKKPGESVKISCKASGYTFTDYAMNWVKQAPGNGLKWMGWINTQTGKPTYADDFKQRFVFSLETSASTAYLQINNLNIEDTATYFCTRSTFYYSSYIYGWYFDFWGPGTMVTVSSASTKGPSVFPLAPCSRSTSESTAALGCLVKDYFPEPVTVSWNSGALTSGVHTFPAVLQSSGLYSLSSVVTVPSSSLGTKTYTCNVDHKPSNTKVDKRVESKYGPPGPSGPAPEFLGGPSVFLFPPKPKDTLMISRTPEVTCVVVDVSQEDPEVQFNWYVDGVEVHNAKTKPREEQFNSTYRVVSVLTVLHQDWLNGKEYKCKVSNKGLPSSIEKTISKAKGQPREPQVYTLPPSQEEMTKNQVSLTCLVKGFYPSDIAVEWESNGQPENNYKTTPPVLDSDGSFFLYSRLTVDKSRWQEGNVFSCSVMHEALHNHYTQKSLSLSLGKGSRRKPGKCPVTYGQCLMLNPPNFCEMDGQCKRDLKCCMGMCGKSCVSPVKA light: DIVMTQSPTSISISVGERVTMNCKASQNVGSNVDWYQQKTGQSPKLLIYKASNRYTGVPDRFTGSGSGTDFTFTISNMQAVDLAVYYCMQSNTNPPWTFGGGTKLELKRTVAAPSVFIFPPSDEQLKSGTASVVCLLNNFYPREAKVQWKVDNALQSGNSQESVTEQDSKDSTYSLSSTLTLSKADYEKHKVYACEVTHQGLSSPVTKSFNRGEC,26.9,–,–
F1024S-SLPI(D1D2) (antibody) heavy: QIQLVQSGPELKKPGESVKISCKASGYTFTDYAMNWVKQAPGNGLKWMGWINTQTGKPTYADDFKQRFVFSLETSASTAYLQINNLNIEDTATYFCTRSTFYYSSYIYGWYFDFWGPGTMVTVSSASTKGPSVFPLAPCSRSTSESTAALGCLVKDYFPEPVTVSWNSGALTSGVHTFPAVLQSSGLYSLSSVVTVPSSSLGTKTYTCNVDHKPSNTKVDKRVESKYGPPGPSGPAPEFLGGPSVFLFPPKPKDTLMISRTPEVTCVVVDVSQEDPEVQFNWYVDGVEVHNAKTKPREEQFNSTYRVVSVLTVLHQDWLNGKEYKCKVSNKGLPSSIEKTISKAKGQPREPQVYTLPPSQEEMTKNQVSLTCLVKGFYPSDIAVEWESNGQPENNYKTTPPVLDSDGSFFLYSRLTVDKSRWQEGNVFSCSVMHEALHNHYTQKSLSLSLGKGSGKSFKAGVCPPKKSAQCLRYKKPECQSDWQCPGKKRCCPDTCGIKCLDPVDTPNPTRRKPGKCPVTYGQCLMLNPPNFCEMDGQCKRDLKCCMGMCGKSCVSPVKA light: DIVMTQSPTSISISVGERVTMNCKASQNVGSNVDWYQQKTGQSPKLLIYKASNRYTGVPDRFTGSGSGTDFTFTISNMQAVDLAVYYCMQSNTNPPWTFGGGTKLELKRTVAAPSVFIFPPSDEQLKSGTASVVCLLNNFYPREAKVQWKVDNALQSGNSQESVTEQDSKDSTYSLSSTLTLSKADYEKHKVYACEVTHQGLSSPVTKSFNRGEC,22.5,–,–
modified F1024S-D2(R11S/R15T/Q19K/Y46D) (antibody) heavy: QIQLVQSGPELKKPGESVKISCKASGYTFTDYAMNWVKQAPGNGLKWMGWINTQTGKPTYADDFKQRFVFSLETSASTAYLQINNLNIEDTATYFCTRSTFYYSSYIYGWYFDFWGPGTMVTVSSASTKGPSVFPLAPCSRSTSESTAALGCLVKDYFPEPVTVSWNSGALTSGVHTFPAVLQSSGLYSLSSVVTVPSSSLGTKTYTCNVDHKPSNTKVDKRVESKYGPPGPSGPAPEFLGGPSVFLFPPKPKDTLMISRTPEVTCVVVDVSQEDPEVQFNWYVDGVEVHNAKTKPREEQFNSTYRVVSVLTVLHQDWLNGKEYKCKVSNKGLPSSIEKTISKAKGQPREPQVYTLPPSQEEMTKNQVSLTCLVKGFYPSDIAVEWESNGQPENNYKTTPPVLDSDGSFFLYSRLTVDKSRWQEGNVFSCSVMHEALHNHYTQKSLSLSLGKGSTVAACNLPIVSGPCTAFIKLWAFDAVKGKCVLFPYGGCQGNGNKFDSEKECREYCGVPGDGDEELLRFSN light: DIVMTQSPTSISISVGERVTMNCKASQNVGSNVDWYQQKTGQSPKLLIYKASNRYTGVPDRFTGSGSGTDFTFTISNMQAVDLAVYYCMQSNTNPPWTFGGGTKLELKRTVAAPSVFIFPPSDEQLKSGTASVVCLLNNFYPREAKVQWKVDNALQSGNSQESVTEQDSKDSTYSLSSTLTLSKADYEKHKVYACEVTHQGLSSPVTKSFNRGEC,4.43,–,–
AVLPQEEEGSGMAACNLPIVRGPCRAFIKLWAFDAVKGKCVLFPYGG (other) [polypeptide Q19K/Y46D],–,~20 times that of polypeptide AN68,–
AACNLPIVRGPCRAFIKLWAFDAVKGKCVLFPYGGCQGNGNKFESEK (other) [polypeptide Q19K/Y46E],–,~10 times that of polypeptide AN68,–
